Assay results from article PMC6591243, “Characterization of metal binding of bifunctional kinase/phosphatase AceK and implication in activity modulation” (Scientific Reports, 2019).

T1: phospho-IDH (isocitrate dehydrogenase phosphorylated by AceK) (E. coli) (UniProt P08200)
T1 sequence (chain, phosphorylated by AceK (residue not printed)): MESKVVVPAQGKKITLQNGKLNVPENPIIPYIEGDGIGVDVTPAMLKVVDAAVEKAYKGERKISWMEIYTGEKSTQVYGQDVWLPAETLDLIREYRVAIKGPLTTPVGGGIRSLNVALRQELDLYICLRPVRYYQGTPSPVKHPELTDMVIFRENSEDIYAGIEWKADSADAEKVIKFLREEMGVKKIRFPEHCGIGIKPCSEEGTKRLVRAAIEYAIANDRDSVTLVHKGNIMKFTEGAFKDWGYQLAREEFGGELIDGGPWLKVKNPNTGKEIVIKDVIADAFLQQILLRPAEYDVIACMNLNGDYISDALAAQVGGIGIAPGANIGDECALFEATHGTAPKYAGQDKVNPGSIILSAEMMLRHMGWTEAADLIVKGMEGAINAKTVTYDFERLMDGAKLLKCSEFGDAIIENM


Tests used:
[1] = target: T2, AceK (isocitrate dehydrogenase kinase/phosphatase) (Escherichia coli, UniProt P11071); assay: X-ray crystallography; type: binding; conditions: allosteric site at interface of kinase and regulatory domains; complex with ADP and Mn2+; AMP not listed among crystallisation additions
T2 construct: hexahistidine-tagged, expressed in E. coli BL21 (DE3), Ni-NTA and Superdex200; 66 kDa

[2] = target: T1, phospho-IDH (isocitrate dehydrogenase phosphorylated by AceK) (E. coli)

Km for phospho-IDH, phosphatase kinetics (20 mM Hepes pH 7.0, 2.0 mM Mn2+, 2.0 mM ADP, 37 °C) [2]	Molecule	X-ray crystallography [1]
–	Nc1ncnc2c1ncn2[C@@H]1O[C@H](COP(=O)(O)O)[C@@H](O)[C@H]1O [AMP]	a buried ADP molecule and a bound AMP at the interface of the two domains
0.376 μM	isocitrate dehydrogenase kinase/phosphatase (AceK) wild-type (enzyme) MPRGLELLIAQTILQGFDAQYGRFLEVTSGAQQRFEQADWHAVQQAMKNRIHLYDHHVGLVVEQLRCITNGQSTDAAFLLRVKEHYTRLLPDYPRFEIAESFFNSVYCRLFDHRSLTPERLFIFSSQPERRFRTIPRPLAKDFHPDHGWESLLMRVISDLPLRLRWQNKSRDIHYIIRHLTETLGTDNLAESHLQVANELFYRNKAAWLVGKLITPSGTLPFLLPIHQTDDGELFIDTCLTTTAEASIVFGFARSYFMVYAPLPAALVEWLREILPGKTTAELYMAIGCQKHAKTESYREYLVYLQGCNEQFIEAPGIRGMVMLVFTLPGFDRVFKVIKDRFAPQKEMSAAHVRACYQLVKEHDRVGRMADTQEFENFVLEKRHISPALMELLLQEAAEKITDLGEQIVIRHLYIERRMVPLNIWLEQVEGQQLRDAIEEYGNAIRQLAAANIFPGDMLFKNFGVTRHGRVVFYDYDEICYMTEVNFRDIPPPRYPEDELASEPWYSVSPGDVFPEEFRHWLCADPRIGPLFEEMHADLFRADYWRALQNRIREGHVEDVYAYRRRQRFSVRYGEMLF	–
16.1 μM	AceK D477A (enzyme) MPRGLELLIAQTILQGFDAQYGRFLEVTSGAQQRFEQADWHAVQQAMKNRIHLYDHHVGLVVEQLRCITNGQSTDAAFLLRVKEHYTRLLPDYPRFEIAESFFNSVYCRLFDHRSLTPERLFIFSSQPERRFRTIPRPLAKDFHPDHGWESLLMRVISDLPLRLRWQNKSRDIHYIIRHLTETLGTDNLAESHLQVANELFYRNKAAWLVGKLITPSGTLPFLLPIHQTDDGELFIDTCLTTTAEASIVFGFARSYFMVYAPLPAALVEWLREILPGKTTAELYMAIGCQKHAKTESYREYLVYLQGCNEQFIEAPGIRGMVMLVFTLPGFDRVFKVIKDRFAPQKEMSAAHVRACYQLVKEHDRVGRMADTQEFENFVLEKRHISPALMELLLQEAAEKITDLGEQIVIRHLYIERRMVPLNIWLEQVEGQQLRDAIEEYGNAIRQLAAANIFPGDMLFKNFGVTRHGRVVFYDYAEICYMTEVNFRDIPPPRYPEDELASEPWYSVSPGDVFPEEFRHWLCADPRIGPLFEEMHADLFRADYWRALQNRIREGHVEDVYAYRRRQRFSVRYGEMLF	–
1.95 μM	AceK D475A (enzyme) MPRGLELLIAQTILQGFDAQYGRFLEVTSGAQQRFEQADWHAVQQAMKNRIHLYDHHVGLVVEQLRCITNGQSTDAAFLLRVKEHYTRLLPDYPRFEIAESFFNSVYCRLFDHRSLTPERLFIFSSQPERRFRTIPRPLAKDFHPDHGWESLLMRVISDLPLRLRWQNKSRDIHYIIRHLTETLGTDNLAESHLQVANELFYRNKAAWLVGKLITPSGTLPFLLPIHQTDDGELFIDTCLTTTAEASIVFGFARSYFMVYAPLPAALVEWLREILPGKTTAELYMAIGCQKHAKTESYREYLVYLQGCNEQFIEAPGIRGMVMLVFTLPGFDRVFKVIKDRFAPQKEMSAAHVRACYQLVKEHDRVGRMADTQEFENFVLEKRHISPALMELLLQEAAEKITDLGEQIVIRHLYIERRMVPLNIWLEQVEGQQLRDAIEEYGNAIRQLAAANIFPGDMLFKNFGVTRHGRVVFYAYDEICYMTEVNFRDIPPPRYPEDELASEPWYSVSPGDVFPEEFRHWLCADPRIGPLFEEMHADLFRADYWRALQNRIREGHVEDVYAYRRRQRFSVRYGEMLF	–
12.2 μM	AceK D477K (enzyme) MPRGLELLIAQTILQGFDAQYGRFLEVTSGAQQRFEQADWHAVQQAMKNRIHLYDHHVGLVVEQLRCITNGQSTDAAFLLRVKEHYTRLLPDYPRFEIAESFFNSVYCRLFDHRSLTPERLFIFSSQPERRFRTIPRPLAKDFHPDHGWESLLMRVISDLPLRLRWQNKSRDIHYIIRHLTETLGTDNLAESHLQVANELFYRNKAAWLVGKLITPSGTLPFLLPIHQTDDGELFIDTCLTTTAEASIVFGFARSYFMVYAPLPAALVEWLREILPGKTTAELYMAIGCQKHAKTESYREYLVYLQGCNEQFIEAPGIRGMVMLVFTLPGFDRVFKVIKDRFAPQKEMSAAHVRACYQLVKEHDRVGRMADTQEFENFVLEKRHISPALMELLLQEAAEKITDLGEQIVIRHLYIERRMVPLNIWLEQVEGQQLRDAIEEYGNAIRQLAAANIFPGDMLFKNFGVTRHGRVVFYDYKEICYMTEVNFRDIPPPRYPEDELASEPWYSVSPGDVFPEEFRHWLCADPRIGPLFEEMHADLFRADYWRALQNRIREGHVEDVYAYRRRQRFSVRYGEMLF	–
